Patent publication US20230250176A1

Experiments:
[1] = molecular target: purified recombinant human FcγRIIa H131 (human) (UniProt P12318); assay: SPR (Biacore 8K), 25 C
[2] = molecular target: purified recombinant human FcγRI (human) (UniProt P12314); assay: SPR (Biacore 8K), 25 C

Sequence of purified recombinant human FcγRIIa H131 (human) (P12318 36-218 limits assumed): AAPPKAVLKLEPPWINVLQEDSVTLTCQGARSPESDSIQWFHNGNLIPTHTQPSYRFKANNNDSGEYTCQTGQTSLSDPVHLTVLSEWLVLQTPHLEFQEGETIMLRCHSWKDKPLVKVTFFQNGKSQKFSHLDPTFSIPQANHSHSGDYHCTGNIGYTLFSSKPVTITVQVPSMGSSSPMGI

Row | Kd [1] [nM] | Kd [2] [nM] | Substance
1 | 1100 |  | panitumumab (antibody)
2 |  | 7.3 | cetuximab (antibody)
